How the values were obtained:
Assay in all cases: BLI (Octet R8), avidity format: biotinylated CD33 on streptavidin sensor, Refmab #3 as analyte at 500 nM;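 note: analyte association recorded over 300 s, then dissociation followed for 900 s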
[1] = target: CD33 variant F21V (recombinant, biotinylated) (human, UniProt P20138 22-259, biotinylated with EZ-Link Sulfo-NHS-LC-Biotin (sites not given))
[2] = target: CD33 variant F21L (recombinant, biotinylated) (human, UniProt P20138 22-259, biotinylated with EZ-Link Sulfo-NHS-LC-Biotin (sites not given))
[3] = target: CD33 variant F21I (recombinant, biotinylated) (human, UniProt P20138 22-259, biotinylated with EZ-Link Sulfo-NHS-LC-Biotin (sites not given))
[4] = target: CD33 variant F21S (recombinant, biotinylated) (human, UniProt P20138 22-259, biotinylated with EZ-Link Sulfo-NHS-LC-Biotin (sites not given))
[5] = target: CD33 variant F21M (recombinant, biotinylated) (human, UniProt P20138 22-259, biotinylated with EZ-Link Sulfo-NHS-LC-Biotin (sites not given))
[6] = target: CD33 variant F21N (recombinant, biotinylated) (human, UniProt P20138 22-259, biotinylated with EZ-Link Sulfo-NHS-LC-Biotin (sites not given))
[7] = target: CD33 variant F21Q (recombinant, biotinylated) (human, UniProt P20138 22-259, biotinylated with EZ-Link Sulfo-NHS-LC-Biotin (sites not given))
[8] = target: CD33 variant F21H (recombinant, biotinylated) (human, UniProt P20138 22-259, biotinylated with EZ-Link Sulfo-NHS-LC-Biotin (sites not given))
[9] = target: CD33 variant W22T (recombinant, biotinylated) (human, UniProt P20138 18-259, biotinylated with EZ-Link Sulfo-NHS-LC-Biotin (sites not given))
[10] = target: CD33 variant W22E (recombinant, biotinylated) (human, UniProt P20138 18-259, biotinylated with EZ-Link Sulfo-NHS-LC-Biotin (sites not given))
[11] = target: CD33 variant W22R (recombinant, biotinylated) (human, UniProt P20138 18-259, biotinylated with EZ-Link Sulfo-NHS-LC-Biotin (sites not given))
[12] = target: CD33 variant W22D (recombinant, biotinylated) (human, UniProt P20138 18-259, biotinylated with EZ-Link Sulfo-NHS-LC-Biotin (sites not given))
[13] = target: CD33 variant W22K (recombinant, biotinylated) (human, UniProt P20138 18-259, biotinylated with EZ-Link Sulfo-NHS-LC-Biotin (sites not given))
[14] = target: CD33 variant F44P (recombinant, biotinylated) (human, UniProt P20138 18-259, biotinylated with EZ-Link Sulfo-NHS-LC-Biotin (sites not given))
[15] = target: CD33 variant Y50D (recombinant, biotinylated) (human, UniProt P20138 18-259, biotinylated with EZ-Link Sulfo-NHS-LC-Biotin (sites not given))
[16] = target: CD33 variant Y50R (recombinant, biotinylated) (human, UniProt P20138 18-259, biotinylated with EZ-Link Sulfo-NHS-LC-Biotin (sites not given))
[17] = target: CD33 variant Y50K (recombinant, biotinylated) (human, UniProt P20138 18-259, biotinylated with EZ-Link Sulfo-NHS-LC-Biotin (sites not given))
[18] = target: CD33 double variant Y50H_H49H (recombinant, biotinylated) (human, UniProt P20138 18-259, biotinylated with EZ-Link Sulfo-NHS-LC-Biotin (sites not given))
[19] = target: T1, CD33 wild type (recombinant, biotinylated) (human, UniProt P20138 18-259, biotinylated with EZ-Link Sulfo-NHS-LC-Biotin (sites not given))
T1 construct: also called WT; CD33 wt

[20] = target: CD33 variant N20G (recombinant, biotinylated) (human, UniProt P20138 21-259, biotinylated with EZ-Link Sulfo-NHS-LC-Biotin (sites not given))
[21] = target: CD33 variant N20E (recombinant, biotinylated) (human, UniProt P20138 21-259, biotinylated with EZ-Link Sulfo-NHS-LC-Biotin (sites not given))
[22] = target: CD33 variant N20K (recombinant, biotinylated) (human, UniProt P20138 21-259, biotinylated with EZ-Link Sulfo-NHS-LC-Biotin (sites not given))
[23] = target: CD33 variant N20V (recombinant, biotinylated) (human, UniProt P20138 21-259, biotinylated with EZ-Link Sulfo-NHS-LC-Biotin (sites not given))
[24] = target: CD33 variant N20H (recombinant, biotinylated) (human, UniProt P20138 21-259, biotinylated with EZ-Link Sulfo-NHS-LC-Biotin (sites not given))
Chain of CD33 variant N20H (recombinant, biotinylated) (P20138 other isoform, or with tags, fused parts or gaps N20H N20H): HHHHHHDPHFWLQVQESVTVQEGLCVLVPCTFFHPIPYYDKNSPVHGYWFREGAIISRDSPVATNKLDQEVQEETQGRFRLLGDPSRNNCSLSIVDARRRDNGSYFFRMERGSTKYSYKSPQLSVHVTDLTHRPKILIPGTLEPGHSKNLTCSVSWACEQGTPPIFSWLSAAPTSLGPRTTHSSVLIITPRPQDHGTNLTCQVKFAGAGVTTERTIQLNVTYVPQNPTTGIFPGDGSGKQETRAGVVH

Chain of CD33 variant F44P (recombinant, biotinylated) (P20138 other isoform, or with tags, fused parts or gaps F44P F44P): as the sequence (P20138 other isoform, or with tags, fused parts or gaps N20H N20H) above, with H9N, F33P counted along it
Chain of CD33 variant N20E (recombinant, biotinylated) (P20138 other isoform, or with tags, fused parts or gaps N20E N20E): as the sequence (P20138 other isoform, or with tags, fused parts or gaps N20H N20H) above, with H9E counted along it
Chain of CD33 variant N20V (recombinant, biotinylated) (P20138 other isoform, or with tags, fused parts or gaps N20V N20V): as the sequence (P20138 other isoform, or with tags, fused parts or gaps N20H N20H) above, with H9V counted along it
Chain of CD33 variant W22E (recombinant, biotinylated) (P20138 other isoform, or with tags, fused parts or gaps W22E W22E): as the sequence (P20138 other isoform, or with tags, fused parts or gaps N20H N20H) above, with H9N, W11E counted along it
Chain of CD33 variant Y50R (recombinant, biotinylated) (P20138 other isoform, or with tags, fused parts or gaps Y50R Y50R): as the sequence (P20138 other isoform, or with tags, fused parts or gaps N20H N20H) above, with H9N, Y39R counted along it
Chain of CD33 variant F21V (recombinant, biotinylated) (P20138 other isoform, or with tags, fused parts or gaps F21V F21V): as the sequence (P20138 other isoform, or with tags, fused parts or gaps N20H N20H) above, with H9N, F10V counted along it
Chain of CD33 variant N20K (recombinant, biotinylated) (P20138 other isoform, or with tags, fused parts or gaps N20K N20K): as the sequence (P20138 other isoform, or with tags, fused parts or gaps N20H N20H) above, with H9K counted along it
Chain of CD33 variant F21Q (recombinant, biotinylated) (P20138 other isoform, or with tags, fused parts or gaps F21Q F21Q): as the sequence (P20138 other isoform, or with tags, fused parts or gaps N20H N20H) above, with H9N, F10Q counted along it
Chain of CD33 variant F21N (recombinant, biotinylated) (P20138 other isoform, or with tags, fused parts or gaps F21N F21N): as the sequence (P20138 other isoform, or with tags, fused parts or gaps N20H N20H) above, with H9N, F10N counted along it
Chain of CD33 variant F21L (recombinant, biotinylated) (P20138 other isoform, or with tags, fused parts or gaps F21L F21L): as the sequence (P20138 other isoform, or with tags, fused parts or gaps N20H N20H) above, with H9N, F10L counted along it
Chain of CD33 variant W22D (recombinant, biotinylated) (P20138 other isoform, or with tags, fused parts or gaps W22D W22D): as the sequence (P20138 other isoform, or with tags, fused parts or gaps N20H N20H) above, with H9N, W11D counted along it
Chain of CD33 double variant Y50H_H49H (recombinant, biotinylated) (P20138 other isoform, or with tags, fused parts or gaps Y50H H49H Y50H H49H): as the sequence (P20138 other isoform, or with tags, fused parts or gaps N20H N20H) above, with H9N, Y38H, Y39H counted along it
Chain of CD33 variant W22T (recombinant, biotinylated) (P20138 other isoform, or with tags, fused parts or gaps W22T W22T): as the sequence (P20138 other isoform, or with tags, fused parts or gaps N20H N20H) above, with H9N, W11T counted along it
Chain of CD33 variant Y50K (recombinant, biotinylated) (P20138 other isoform, or with tags, fused parts or gaps Y50K Y50K): as the sequence (P20138 other isoform, or with tags, fused parts or gaps N20H N20H) above, with H9N, Y39K counted along it
Chain of CD33 variant W22R (recombinant, biotinylated) (P20138 other isoform, or with tags, fused parts or gaps W22R W22R): as the sequence (P20138 other isoform, or with tags, fused parts or gaps N20H N20H) above, with H9N, W11R counted along it
Chain of CD33 variant F21H (recombinant, biotinylated) (P20138 other isoform, or with tags, fused parts or gaps F21H F21H): as the sequence (P20138 other isoform, or with tags, fused parts or gaps N20H N20H) above, with H9N, F10H counted along it
T1 sequence (P20138 other isoform, or with tags, fused parts or gaps): as the sequence (P20138 other isoform, or with tags, fused parts or gaps N20H N20H) above, with H9N counted along it
Chain of CD33 variant F21M (recombinant, biotinylated) (P20138 other isoform, or with tags, fused parts or gaps F21M F21M): as the sequence (P20138 other isoform, or with tags, fused parts or gaps N20H N20H) above, with H9N, F10M counted along it

% WT binding [1]: 0 % WT binding
% WT binding [2]: 0 % WT binding
% WT binding [3]: 0 % WT binding
% WT binding [4]: 0 % WT binding
% WT binding [5]: 0 % WT binding
% WT binding [6]: 0 % WT binding
% WT binding [7]: 0 % WT binding
% WT binding [8]: 0 % WT binding
% WT binding [9]: 5.25 % WT binding
% WT binding [10]: 23.5 % WT binding
% WT binding [11]: 0.86 % WT binding
% WT binding [12]: 6.42 % WT binding
% WT binding [13]: 0 % WT binding
% WT binding [14]: 0 % WT binding
% WT binding [15]: 128 % WT binding
% WT binding [16]: 93.1 % WT binding
% WT binding [17]: 73.9 % WT binding
% WT binding [18]: 58.5 % WT binding
% WT binding [19]: 100 % WT binding
% WT binding [20]: 0 % WT binding
% WT binding [21]: 0 % WT binding
% WT binding [22]: 0 % WT binding
% WT binding [23]: 6.62 % WT binding
% WT binding [24]: 5.39 % WT binding
B1: Refmab #3 (antibody, human IgG1, V domains shown)
VH: QVQLVQSGAEVKKPGSSVKVSCKASGYTFTDYNMHWVRQAPGQGLEWIGYIYPYNGGTGYNQKFKSKATITADESTNTAYMELSSLRSEDTAVYYCARGRPAMDYWGQGTLVTVSS
VL: DIQMTQSPSSLSASVGDRVTITCRASESVDNYGISFMNWFQQKPGKAPKLLIYAASNQGSGVPSRFSGSGSGTDFTLTISSLQPDDFATYYCQQSKEVPWTFGQGTKVEIK

— patent publication US20260242735A1 (UNIVERSIT T BASEL, published 2026)
